Measurements published in publication PMC5770551.

Target: CbpAC (pneumococcal surface protein C variant) of nonencapsulated Streptococcus pneumoniae strain MNZ41 (Streptococcus pneumoniae (nonencapsulated strain MNZ41))
Experiment: flow cytometry on cells; 10^7 CFU viable pneumococci incubated with 200 µl of 10 µg/ml nonspecific mouse IgA for 1 h on ice; detected with biotinylated goat anti-mouse IgA and streptavidin-Alexa Fluor 488; percent positive cells gated above background

## nonspecific mouse IgA (antibody)
  percent positive cells (MNZ41 bacteria expressing CbpAC): 58.6%
